The results in this text go back to paper PMC10306066.

The target in this assay is Ralstonia solanacearum lectin (Ralstonia solanacearum). As to the kind of experiment: crystal structure.

As for “Ralstonia solanacearum lectin (natural protein)”, the stoichiometry N – broadly, the number of molecules, sites or subunits per partner or assembly – was 3.
